Results published in the nanobody polyreactivity screen of Harvey et al. (2022).

Assay: yeast display, Sf9 membrane polyspecificity reagent, FACS + sequencing; frameworks hold sequencing errors
How it was run: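 Nanobodies came from a synthetic yeast display library in Saccharomyces cerevisiae BJ5465, induced with galactose for 36–48 hours and stained for 1 hour at 4 °C with 10% biotinylated, detergent-solubilized Sf9 membrane reagent. Cells were enriched on streptavidin microbeads and then FACS-sorted, with low and high (top ~1%) gates set on anti-HA fluorescence for expression and streptavidin fluorescence for reagent binding. Each polyreactivity label reflects the gate a clone came from. Genes were amplified by colony PCR, sequenced by MiSeq 2 × 250 and filtered by CDR length.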

## QVQLEESGGGLVQAGGSLRLSCAASGSTFHLYAMGLYRQAPGKEREFVAAIRGRGGNTYADSVKGRFTISRDNAKNTVYLQMNSLKPEDTAVYYCAAPLLRDLRSQYYYIYWGQCTQVTVSS
  polyreactivity (PSR sort gate): low polyreactivity

## QVQLVESGGGLVQAGGSLRLSCAASGSTFRYYAMGWYRQAPGKERELVAAISRSGGSTSYADSVKGRFTISRDNAKNTVYLQMNSLKPEDTAVYSCAARIYRKYYRYDYWGQGTQVTVSS
  polyreactivity (PSR sort gate): high polyreactivity

## QDQLVESGGGLVQAGVSLRLSCPASGYNFDYYVMGWYRQAPGKERELVAAISSSGGSTYYADSVKGRFTISRDNAKNTVYLQMNSLKPEDTAVYYCATKPYPYYLYYYWGQGTQVTVSS
  polyreactivity (PSR sort gate): high polyreactivity

## QVQLVESGGGLVQAGGSLRLSCAASGSIFLAYAMGWYRQAPGKERELVADISYSGGRTYYADSVMGRFTISRDNAKNTVYLQMNSLIPEDTAVYYCAADPWHDTDQHGNDYWGQGSQVTVSS
  polyreactivity (PSR sort gate): low polyreactivity

## QVQLVESGGGLVQAGGSLRLSCAASGRIFYRNAMGWYRQAPGKERELVAAISRSGGTTYYADSVKGRFTISRDNAKNTVYLQMNSLKPEDTAVYYCAALVPYSYPGYYYWGQGTQVTVSS
  polyreactivity (PSR sort gate): high polyreactivity

## QVQLVESGGGLVQAGGSLRLSCAASGSIFHGNAMGWNRQAPGKERELVATISSGGSTYYADSVKGRFTISRDNAKNTVYLQMNSLKPEDTAVYYCAAEYWNGPYYGDPFEYDYWGQGTQVTVSS
  polyreactivity (PSR sort gate): low polyreactivity

## QVQLVESGGGLVQAGGSLRLSCAASGSTFHYYVMGWYRQAPGKERELDAAIRRSGGTTYYADSVKGRFTISRDNAKNTVYLQMNSLKPEDTAVYYCAAYFFHYHFYQAAYDYWGQGTQVTVSS
  polyreactivity (PSR sort gate): low polyreactivity

## QVQLVESGGRLVQAGGSLRLSCAASGSTFTLYAMGWYRQAPGKERELVAAITWRGGSTFYADSVKGRFTISRDNAKNSVYLQMNSLKPEDTAVYYCAADYYSYVVGRIYYWGQGTQVNVSS
  polyreactivity (PSR sort gate): high polyreactivity

## QVQLVESGGGLVQAGGSLRLSCAASGITFYIYAMGWYRQAPGKERELVATISWSDGRTYYADSVKGRFTISRDNAKTTVYLQMNSLKPEDTAVYYCAADWWYYQFDYEYWGQGTQVTVSS
  polyreactivity (PSR sort gate): low polyreactivity

## QVQLVESGGGLVQAGGSLRLSCAASGSTFKQYAMGWYRQAPGKERELVAAISTIGGSTYYADSVKGRFTISRDNAKITVYLQMNSLKPEDTAVYYCAAEYWYIWPYNYWGLGTQVTVSS
  polyreactivity (PSR sort gate): high polyreactivity

## QVQLVVSGGGLVQAGGSLRLSCAASGITFYYNAMGWYRQAPGKEGEVVAAITRRGGSTYYADSVKGRFTISRDNAKNTVYLQMNSLIPEDTAVYYCAKYIYGYKDSPLGDDYWGQGTQVTVSS
  polyreactivity (PSR sort gate): high polyreactivity

## QVQLVESGGGLVQAGGSLRLSCAASGFIFEKYTMGWYRQAPGKERELVAAITWNGGSTYYADSVKGRFTISRDNAKNTVYLQMNSLIPEDTAVYYCARDDRDISGESGREGFLYDYWGQGTQVTVSS
  polyreactivity (PSR sort gate): low polyreactivity

## QVQLVESVGGLVQAGGSLRLSCAASGSIFSPYAMGWYRQAPGKERELVAGISRDGSTYYADSVKGRFTISRDNAKNTVYLQMNSMKPEDTAVYYCAATEFRYFEGGAYFEGYYWGQGTQVTVSS
  polyreactivity (PSR sort gate): low polyreactivity

## QVQLVESGGGLVQAGGSLRLSCAASGLNFSEYAMGWYRQAPGKERELVAAIRSDGGSTYYADSVKGRFTISRDNAKNTVYLQMNSLKPEVTAVYYCNAPYRRSAKFRRYVYDYWGQGTQVTVSS
  polyreactivity (PSR sort gate): high polyreactivity

## QVQLVESGGGLVQAGCSLRISCAASGSIYATKAIGWYRQAPGKERELVASISSGGCSTYYADSVKARFTISRDNAKNTVYLQLNSLKPEDTAVYYCARRIGHGSRPYWLETWRYPYDYWGQGTQVTVSS
  polyreactivity (PSR sort gate): low polyreactivity

## HDQLVESGGGFVQAGGSLRLICAASGSTFIGYAMGWYRQAPGKERELVADISWSGGRTYYADSVKGRFTISRDNEKNTVYLQMNSLKPEDTAVYYCAARGSGHTRSYYWGQGTQVTVSS
  polyreactivity (PSR sort gate): high polyreactivity

## QVQLVESGGGLVQAGGSLRLSCAASGFTFVYYVMGWYRQAPGKEREKVAAINAGGGSTYYADSVKGRFTISRDNAKNTVYLQMHSLKPEDSAVYYCATRPRYYYFRYDYWGQGTQVTVSS
  polyreactivity (PSR sort gate): high polyreactivity

## QVQLVQSGGGLVQAGGSLRLSCAASGRIFPRYGMGWYRQAPGKERELCADITSSGSTYADSVKGRFTISRDNAKNTDYLQMHSLKPEDTAVYYCNALDRRLSYSWRYRQLYDYWGQGTQGTVSS
  polyreactivity (PSR sort gate): high polyreactivity

## QVQLVESGGGLVQAGGSLRLSCAASGSTFIYYAMGWYRQAPGKERELVAVITGNGGRTYYADSVKGRFTISRDNAKNTVYLQMNSLKPEDTAVYYCAALYDGIYDSWGQGTQVTVSS
  polyreactivity (PSR sort gate): high polyreactivity

## QVQLVESGGGLVQAGGSLRLSCAASGSIFSSNAMGWYRQAPGKERELVAAITSGGSTTYADSVKGRFPISRDNAKNTVYFQMNSLKPEDTAVYYCAADPVYRYYHGWTYLDYDYWGQGTQVTVSS
  polyreactivity (PSR sort gate): low polyreactivity

## QVQLVESGGGLVQAGGSLRLSCDASGFISFGNAMGWNRQAPRKERELVAGISRSGGSTYYADSVKGRFTISRDNAKNTVYLQMISLKPEDTAVYYCATRVAIYPYRFDYWGQGTQVTVSS
  polyreactivity (PSR sort gate): high polyreactivity

## QVQLVESGGGLVQAGGSLRLSCAASGNILGYNAMGWYRQAPGKERELVAAISWIGGSTYYADSVKGRFTISRDNAKNTVYLQMNSLKPEDTAVYYCAARRVIYYPAFYYDYYYWGQGTQVTVSS
  polyreactivity (PSR sort gate): low polyreactivity

## QVQLVESGGGLVQAGGSLRLSCAASGRTFSYYAMGWYRQAPGKERELVAVITSSGGSTSYADSVKGRFTISRDNAKNTVYLQMNSLKPEDTAVYYCAADPLAVSWAYYLFGVDYWGQGTQVTVSS
  polyreactivity (PSR sort gate): high polyreactivity

## QVQLVESGGGLVQAGGSLRLSCAASGRTFARNAMGWYRPAPGKERELVAAITGRGGSTHYADSVKGRFTISRDNAKNTVYLKMNSLKPEDTAVYYCAADYRYNRGSTSNKDYDYWGQGTQVTVSS
  polyreactivity (PSR sort gate): low polyreactivity

## QVQLVESGGGLVQAGGSLRLSCAASGSIFYIYAMGWYRQAPGKERELVARISTGGSTHYADSVKGRFTISRDNAKNTVYLQMNSLKPEDTAVYYCDAPYWLWDGEGEYDYWGQGTQVTVSS
  polyreactivity (PSR sort gate): low polyreactivity

## QVQIVESGGGLVQAGGSLRLSCAASGSIFPRMAMGWYIQAPGKERELVAAITTGGITNYADSVKGRFTISRDHAKNTVYLQMNSLNPDDTAVYYCAATSWRYQQSTRYKGRRYYSWGQGTQVTVSS
  polyreactivity (PSR sort gate): high polyreactivity

## QVQLVESGGGLVQAGGSLRLSCAASGRIFYSYAMGWYRQAPGKERELVARISSGGSTNYADSVKGRFTISRDNAKNTVYLQMNSLNPEDTAVYYCAAATIWSGVHYGYWGQGTQVTVSS
  polyreactivity (PSR sort gate): low polyreactivity

## QVQLVESGGGLVQEGGSLRLSCAASGGTFRWYTMGWYRQAPGKERELVAAISSTGSTYYADSVKGRFTISRDNAKNTVYLQMNSLKPEDTAVYYCNASYNGKGSWDLDYWGQGTQVTVSS
  polyreactivity (PSR sort gate): high polyreactivity

## QVQLVESGGGLVQAGGSLRLSCAASGSIFLIYAMGSYRQAPGKERELVATINRGDNTYYADSVKGRFTISRDNAKNTVYLQMNSLKPEDTAVYYCAADVPWGWWDSDFSDNYYWGQGTQVTVSS
  polyreactivity (PSR sort gate): low polyreactivity

## QVQLVESGGGLVQAGGSLRLSCAASGSIFKTYAMGWSRPAPGKERELVAAITSSGGSTYYADSVKGRFTISRDNAKNTVDLQMNSLKPEDTAVYDCAALSGQARRMYYWGQGTQVTVSS
  polyreactivity (PSR sort gate): high polyreactivity

## QVQLVESGGGLVQAGGSLRLSCGASGSIFYQNVMGWYRQAPGKERELVAAISSSGDSTYYADSVKGRFTISRDNAKNTVYLQMNSLKPEDTAVYYCAAEPEYVSGPYDYWGQGTQVTVSS
  polyreactivity (PSR sort gate): low polyreactivity

## QVQLVESGGGLVQAGGSLRLICAASGFIFRRNARGWSRPAPGTERELVAAISSSGGSTYYADSVKGRFTISRDNAKNTVYLQMNSLKPEDTAVYYCATVLRVTRVDYWGQGTQVTVSS
  polyreactivity (PSR sort gate): high polyreactivity

## QVQLVESGGGLVQAGGSLRLSCAASGLTFGNYAMGWDRQAPGKERELVAAISWGGGITYYADSVKGRFTISRDIAKNTVYLQMNSLKPEDTAVYYCAADVYFNSTPDYLYDYWGQGTQVTVSS
  polyreactivity (PSR sort gate): low polyreactivity

## QVQLVESGGGLVQAGGSLRLSCAASGFIFGYNAMGWYRQAPGKERELVASITYRGGRTYADSVKGRFTISRDNAKNTVYLQMNSLKPEDTAVYYCAAVRHVYVGGFDYWGQGTQVTVSS
  polyreactivity (PSR sort gate): high polyreactivity

## QVQLVESGGGLVQAGGTLRLSCAASGSTFRYYAMGWYRQAPGKERELVATITSDGSTNYADSVKGRFTFSRDNAKNTVYLQLNSLKPEDTAVYYCNARCRRYKSSNSWGQGTQVTVSS
  polyreactivity (PSR sort gate): high polyreactivity

## QVQLLESGGGLVQAGGSLRLSCAASGIIFLDNAMGWYRQAPGKERELVADITSSGGSTYYADSVKGRFTISRDNAKNTVSLQMNSLKPEDTAVYYCAATRPSYNDAESDYWGQGTQVTVSS
  polyreactivity (PSR sort gate): low polyreactivity

## QVQLVESGGGLVQAGGSLRLSCAASGSIFFSYAMGWYRQAPGKERELVATITTSGGRTRYADSVKGRFTISRDNAKNTVYLQMNSLKPEDTAVYYCAVRGHFFTYGYWGQGTQVTVSS
  polyreactivity (PSR sort gate): high polyreactivity

## QVQLVESGGGLVQAGGSLRLSCAASGGTFHHYAMGWYRQAPGKERELVASITNGASTYYADSVKGRFTISRDNAKNTVYLQMNSLKPEDTAVYYCAKRCRVGKYRYEYWGQGTQVTVSS
  polyreactivity (PSR sort gate): low polyreactivity

## QVQLVESGGGLVQAGGTLRLSCAASGYTSSLNAMRWYRQAPGKERELVARITTDGTSTYYADSVKGRFTISRDNAKNTVYLQMNSLKPEDTAVYYCNARYPAYGVRSWYPYAYYYWGQGTQVTVSS
  polyreactivity (PSR sort gate): low polyreactivity

## QVQLVESGGGLVQAGGSLRLSCAASGSTFYIYAMGWYRQAPGKERELVAAINWRTGSTYYADSVKGRFTISRDNAKNTVYLQMNSLKPEDTAVYYCNAYTKHWSYWGQGTQVTVSS
  polyreactivity (PSR sort gate): high polyreactivity

## QVQLVESGGGLVQAGGSLRLSCAASGSIFDSYAMGWYRQAPGKERELVASISRRGGTTYYADSVKGRFTISRDNAKNTGYLQMNSLKPEDTAVYYCAKVGSLYQPSRYDYWGQGTQVTVTS
  polyreactivity (PSR sort gate): high polyreactivity

## QVQLVESGGGLVQAGGSLRLSCAASGFTFLRYALGWYRQAPGKERELVAAISTSGGSTSYADSVKGRFTITRDNAKNTVYLQMNSLKPEDTAVYYCNAVLYKVSISEYDYWGQGTQVTVSS
  polyreactivity (PSR sort gate): high polyreactivity

## QVQLVESGGCLVQAGGSLRLSCAASGSINRSYAMAWYRQAPGKDWELVASISRRGGSTYYADSVKGRFTISRDNAKNSVYLQMNRLKPEDSAVYYCAAVRYNSRVSTTPSEMYYWGQGTQVTVSS
  polyreactivity (PSR sort gate): low polyreactivity
